Results: the DeepSol protein solubility set

Test: soluble on expression in E. coli; label from the status in PepcDB or PDB records

| Sequence | soluble on expression in E. coli |
| --- | --- |
| MPKSLSLQDVQLRFSSKFPDKTVLKFTKNYEPVTIQCPLHGSVVYGNLQAAMKSSTGCPECTRNPEKPSPNAVAIRLEDTETGEIYEFASTLAASKFIGCSNSTLAVRLSGRTPFDRLIRYRYRLVK | not soluble |
| MAEKFDCHYCRDPLQGKKYVQKDGHHCCLKCFDKFCANTCVECRKPIGADSKEVHYKNRFWHDTCFRCAKCLHPLANETFVAKDNKILCNKCTTREDSPKCKGCFKAIVAGDQNVEYKGTVWHKDCFTCSNCKQVIGTGSFFPKGEDFYCVTCHETKFAEHCVKCNKAITSGGITYQDQPWHADCFVCVTCSKKLAGQRFTAVEDQYYCVDCYKNFVAKKCAGCKNPITGFGKGSSVVAYEGQSWHDYCFHCKKCSVNLANKRFVFHQEQVYCPDCAKKL | soluble |
| MPEQDIASLISEHRILLEEAVREVIRRYPQSLSPSENFSKHIFSSEQLKNIIDTVLAEAWQQSAMVVITLCDEKGECVLTYRMPGTSAEDIAVAGRAAEAAVSFAKENKQIIDPTLHNVIGGIDTSRGGCVVYCAGKVIGGIGISGASAEKNHLIALRAVDSLKSGSQK | not soluble |
| MGSDKIHHHHHHMKRKTKLDKKSKWVLDMKFGVSSLVFLPESLTSSMEKIAEHNFDAWEIVCEGTHYLSPKNIKYLMELRDRYEVEIVVHAPFSDLNPASMNERVRKLTVECIRDAIEGAFELDSEVVVVHPGYIPELWSNYVSEILDNNFSTLSEIVEIAEDYGIKIGLENMPNFRGVLGITPESLLEIVKDIDSKNLGITFDIGHANTAGNPAEFVEKLQNIGIGIIHVHAHDNNGYDDEHLKIGEGNINFIEVLEKLKEIGYDGVISIENKNIRDAVKSKEILKEYLEIVNEKVAEKEKIEE | not soluble |
| GHHHHHHLEKCVFVTVGTTSFDDLIACVSAPDSLQKIESLGYNRLILQIGRGTVVPEPFSTESFTLDVYRYKDSLKEDIQKADLVISHAGAGSCLETLEKGKPLVVVINEKLMNNHQLELAKQLHKEGHLFYCTCSTLPGLLQSMDLSTLKCYPPGQPEKFSAFLDKVVGLQK | not soluble |
| MGHHHHHHSHMVAHNQVAADNAVSTAAEPRRRPEPSSSSSSSPAAPARPRPCPAVPAPAPGDTHFRTFRSHADYRRITRASALLDACGFYWGPLSVHGAHERLRAEPVGTFLVRDSRQRNCFFALSVKMASGPTSIRVHFQAGRFHLDGSRESFDCLFELLEHYVAAPRRMLGAPLRQRRVRPLQELCRQRIVATVGRENLARIPLNPVLRDYLSSFPFQI | not soluble |
| MGSDKIHHHHHHMFGLIGHLTSLEHAQAVAQELGYPEYADQGLDFWCSAPPQIVDSIIVTSVTGQQIEGRYVESCFLPEMLASRRIKAATRKILNAMAHAQKHGINITALGGFSSIIFENFKLEQFSQVRNIKLEFERFTTGNTHTAYIICKQVEEASKQLGINLSNATVAVCGATGDIGSAVTRWLDARTDVQELLLIARDQERLKELQGELGRGKIMGLTEALPQADVVVWVASMPRGVEIDPTTLKQPCLLIDGGYPKNLATKIQYPGVHVLNGGIVEHSLDIDWKIMKIVNMDVPARQLFACFAESMLLEFEKLYTNFSWGRNQITVDKMEQIGRVSVKHGFRPLLV | not soluble |
| MAQQAPDREKALELAMAQIDKNFGKGSVMRLGEEVRQPISVIPTGSISLDVALGIGGLPRGRVIEIYGPESSGKTTVALHAVANAQAAGGIAAFIDAEHALDPEYAKKLGVDTDSLLVSQPDTGEQALEIADMLVRSGALDIIVIDSVAALVPRAEIEGEMGDSHVGLQARLMSQALRKMTGALNNSGTTAIFINALREKIGVMFGSPETTTGGKALKFYASVRLDVRRIETLKDGTDAVGNRTRVKVVKNKVSPPFKQAEFDILYGQGISREGSLIDMGVEHGFIRKSGSWFTYEGEQLGQGKENARKFLLENTDVANEIEKKIKEKLGIGAVVTAEADDVLPAPVDF | soluble |
| MGSKGVYQYHWQSHNVKHSGVDDMVLLSKITENSIVENLKKRYMDDYIFTYIGSVLISVNPFKQMPYFGEKEIEMYQGAAQYENPPHIYALADNMYRNMIIDRENQCVIISGESGAGKTVAAKYIMSYISRVSGGGTKVQHVKDIILQSNPLLEAFGNAKTVRNNNSSRFGKYFEIQFSPGGEPDGGKISNFLLEKSRVVMRNPGERSFHIFYQLIEGASAEQKHSLGITSMDYYYYLSLSGSYKVDDIDDRREFQETLHAMNVIGIFAEEQTLVLQIVAGILHLGNISFKEVGNYAAVESEEFLAFPAYLLGINQDRLKEKLTSRQMDSKWGGKSESIHVTLNVEQACYTRDALAKALHARVFDFLVDSINKAMEKDHEEYNIGVLDIYGFEIFQKNGFEQFCINFVNEKLQQIFIELTLKAEQEEYVQEGIRWTPIEYFNNKIVCDLIENKVNPPGIMSILDDVCATMHAVGEGADQTLLQKLQMQIGSHEHFNSWNQGFIIHHYAGKVSYDMDGFCERNRDVLFMDLIELMQSSELPFIKSLFPENLQADKKGRPTTAGSKIKKQANDLVSTLMKCTPHYIRCIKPNETKKPRDWEESRVKHQVEYLGLKENIRVRRAGYAYRRIFQKFLQRYAILTKATWPSWQGEEKQGVLHLLQSVNMDSDQFQLGRSKVFIKAPESLFLLEEMRERKYDGYARVIQKSWRKFVARKKYVQMREEASDLLLNKKERRRNSINRNFIGDYIGMEEHPELQQFVGKREKIDFADTVTKYDRRFKGVKRDLLLTPKCLYLIGREKVKQGPDKGLVKEVLKRKIEIERILSVSLSTMQDDIFILHEQEYDSLLESVFKTEFLSLLAKRYEEKTQKQLPLKFSNTLELKLKKENWGPWSAGGSRQVQFHQGFGDLAVLKPSNKVLQVSIGPGLPKNSRPTRRNTTQNTGYSSGTQNANYPVRAAPPPPGYHQNGVIRNQYVPYPHAPGSQRSNQKSLYTSMARPPLPRQQSTSSDRVSQTPESLDFLKVPDQGAAGVRRQTTSRPPPAGGRPKPQPKPKPQVPQCKALYAYDAQDTDELSFNANDIIDIIKEDPSGWWTGRLRGKQGLFPNNYVTKI | soluble |
| YLELNEIESIIKDINTKAQKMHSGIHKRFYLFVALMTEFQALNGMRIGEMLAIQNEDIDFDNKSLNINGTIHWFHDESGGFGVKDTTKTESSYRTIGLSSRSCEILKKAILENKKDSKWNDGYLNRNFVFTNHKGNPMQTERFNKILREAAKDVGIDKEVSSHILRHSHISLLSQQGVSLKAIMDRVGHSDHRTTLSIYSHVTEQMDKDMMNKLEQVKLG | soluble |
| MTLKLTYFDIHGLAEPIRLLLADKQVAYEDHRVTYEQWADIKPKMIFGQVPCLLSGDEEIVQSGAIIRHLARLNGLNGSNETETTFIDMFYEGLRDLHTKYTTMIYRNYEDGKAPYIKDVLPGELARLEKLFHTYKNGEHYVIGDKESYADYVLFEELDIHLILTPNALDGVPALKKFHERFAERPNIKAYLNKRAAINPPVNGNGKQ | not soluble |
| MGSDKIHHHHHHMSANRLPVTVVTGFLGSGKTTLLRHLLREGNQRLAVVVNEFGTVGLDGDLLKNCGLCPDDEVDERIVELNNGCLCCTVQEDFLPAMEALLLRSNQLDGIIIETSGLALPKPLLQALNWPAIRNKVFINGVVTLVDGYALSNGSPVSDLKSINEQMTNDNSIDHITPIDELFRDQLISADLVLVSRSDLLSAKDFLFVEEEVKKRGNSNANVLPISNGIIEPSVILGLCKEQNNIYRLDQNNQNQNQNQNHDHDHDHDHDHDHVDVISDHLRMETPIDQDVLREMFLRLVPEYQILRVKGKCWIEGKALPLQIQMVGPRFNSWFEAANENAWQPRQSGIDIVFLSLREGVKEAVVNSLCISTRIK | not soluble |
| MIGSGSQRKIGIVIKALLDQAEELDIINKNKIRCTDIPRQGKAERRYLTIRGIDRLLAAAIPMNEVALMRNVLLFTGLRPREAKGLKVKDLDPMRGRLSIRRDVDDLGNPDETKTRNHRGVPIGGDLLFDLDDQAEGKQPHDWLLTDETGHV | not soluble |
| MKINLEELKFGTELIKRGFAKMQKGGVIMDVTNAEQAAIAEEAGAVAVMALHKVPADIRAAGGVARMADPKKIQEIIDAVTIPVMAKCRIGHIAEARALEALGVDMIDESEVLTPADVFFHIDKRKFVVPFVCGARSLGEAVRRIWEGAAMIRTKGEAGTGNVVEAVKHMRLINRAIFELQKMNEERIYGVAEKYASRYAELASRVREEMGLESVSRNDVVFEEYTLGEIIDGIYEILLEIRELGRLPVVNFAAGGVATPADAALMMQLGADGVFVGSGIFKSSNPPEYAKAIVEAVQHYDEPEVVAEVSKGLGEAMKGLDVFKLSEDERLQTRGL | not soluble |
| MMLITDTGVPERYIDTDEWGGEVMLRLDDGWCAALDRNTMMCTIYEKRPLICREFEAGAEDCLTERKGIATAYL | soluble |
| MSYLAKFTSPNQMKKLIKTVVADLLGSDEDLKTSSCHVISNLAANSQEMLKGYTSQIVPYVLLEKCREVPKEDEIAREKQEKWNDVWAELVPTTSSAVRLYKEEILNLAIDLVTNNEVWAVRKQAAVMIRVTFENLKKDAGIDVAKKSALSLRDTLNGRIWDGKIEILRALTSAFEAGGADFKRNMSATEIEDMETVLRREASKKNMEYAGAGLATIATWAVISESVESATWLAKKIDENVTKLIGARNDADSDDNMDGLSNLEKEIRASKLVTLNLTALAISLPAFNNAEEAESTLSQIAGYVKSTVIAWKSKQFFFNELAKSLEKWTPREPVAAGKLIDNILEQADELCAQQKKTVATDALQVVLRIQERSDRFGVDRNSVLDSVNRGVAGSETGLGSRFEAKMDTD | not soluble |
| MMNLHALPTSPRRWQCYDGGNFYQTRLRVSESPNMFKKILFPLVALFMLAGCAKPPTTIEVSPTITLPQQDPSLMGVTVSINGADQRTDQALAKVTRDNQIVTLTASRALRFLLQEVLEKQMTARGYMVGPNGPVNLQIIVSQLYADVSQGNVRYNIATKADIAIIATAQNGNKMTKNYRASYNVEGAFQASNKNIADAVNSVLTDTIADMSQDTSIHEFIKQNAR | not soluble |
| MGSDKIHHHHHHMGREIFNRRLPDNYNDFSHSMDNAANGHYFLRVASSNYKRPDGKNVRTVRDVIAEVDQNGVVVDEWRLFDILDPYRDVIMKTLDQGAVCLNIDASQSGHTLSEEDLAALDSSDKFGDIVGSGAGRNWAHVNSVDYDSEDDSIIISSRHQSAIIKIGRDKKVKWILGTPAGWKAPFNAAILTPVDSKGQKIACQDSGCEGDFDWTWTQHTAFKIDSKSKGDILYLSAFDNGDGRGLEQPAMQSMKYSRSVIYKIDQKNKTVQQIWQYGKERGNEWFSPVTSITEYQTDKNSVFVYSATAGGAFDLSVGAFTSLPNPYLEEFKWGEKEPAVEMQIHGARGYQAMPFSLTKALTE | not soluble |
| MLKTAYQRSPKQELAKNTPFFNETDLKHSFIIDFENQEFIHHQAEPLNYLFYLIKGKAKILKTERNGRQSIVQFLTAGDLIGDLTLVQAETITKDVIALGETCCLAVPLAYAETVLKNKVLFMQQLSHYLGKKMLQRVDHFTTNQTYELSYRLAELLLVAANHEDVYKEKHTEIAEYLGVSYRHLIYTFKQFRERGFIQKQGTAYHINRLALHSFVQKMKS | not soluble |
| MLKRLGIVGFGASAIGFINGLIESGKVKDYRITVLERGKDYSHNTISGVRMDGKIFISHGMGGEIYIPLEIQAKTVEFYLKFSGYTPTVDKRVGIVNYLKSFERDGRKIEFGESFSDEEIYKRFYHHGFEPVKSYFFHLGTDILKETNKNIYEYFSSFENIEFLFGTTVEDVEFGPPHRVHTNRGDFEFDELVIAVGRSGHRLMERLKEKYPQLVRPNQFVDIGVRYELPNHVMDPFSDMYEVKVRYRTKTGYICRIFCQNPAGKVTLEKYEDFTTVNGYSDSLHKTENTNFAILVTTRFTEPFKDPTGYGVNLAKLANILAGDKEKVILQTYGDFKEFRRTKRLGRVHPTLDSESYILGDANLVFPSKIRESLVDFVENLEKVIPGASYFDNLLYAVEVKFYTNKFLNDIVEGLHVVGDCSGWTRSIQYATSMGYMRAVGMKIQSLLEHHHHHH | not soluble |
